In the supplement of paper PMC9170038:

Assays:
MS2 coat protein [1] = experiment: apparent KD of MS2 coat protein, switch ON state; designed switch direction (-1 OFF switch, 1 ON switch): 1; higher = weaker reporter binding; conditions: FMN input: 0 or 200 uM; Eterna round: R93 (includes R88 designs)
In short: (§1)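 Designed RNA switches were transcribed on-chip from Illumina sequencing clusters. They were then titrated with SNAP-549-labelled MS2 coat protein (twofold steps, 0.7 or 1.5 nM to 3 µM; 0.8–1.5 h to 10–20 min per step) in 100 mM Tris-HCl pH 7.5, 80 mM KCl, 4 mM MgCl2, without or with constant ligand. Apparent KD is the per-design median of normalised cluster binding-curve fits.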

MS2 coat protein [2] = experiment: apparent KD of MS2 coat protein, switch OFF state (with FMN for OFF switches, without FMN for ON switches); designed switch direction (-1 OFF switch, 1 ON switch): 1; higher = weaker reporter binding; conditions: FMN input: 0 or 200 uM; Eterna round: R93 (includes R88 designs)
In short: as §1

| Sequence | apparent KD of MS2 coat protein (MS2 coat protein [1]) | apparent KD of MS2 coat protein (MS2 coat protein [2]) |
| --- | --- | --- |
| CGAAAGGAGAGAGAGGAUAUCCAAAGGAAAACAUGAGGAUCACCCAUGUAGAAGGUAGGAGAUUGGGAGAAGGCUCAAGACAGAG [salish99-ss2-143(!!!!)] | 21.3 nM | 36.1 nM |
| CGAAAGGAGAGAGAGGAUAUCCAAAGGAAAACAUGAGGAUCACCCAUGUAGAAGGUAGGAGAUUGGGAGAAGGCUCAAGAGAGAA [salish99-ss2-146] | 19.1 nM | 25 nM |
| CGAAGACAUGAGGAUCACCCAUGUGGGAAUAUGGGAGGAUAUACAAAGACGAGAGUCAGAGUAGAAGGCCUAGGAA [salish99-ss1-104] | 23.3 nM | 56.6 nM |
| CGCGGGCCCGGGCAGGAUAUCCGGCCUCGGACAUGAGGAUCACCCAUGUGGCCGAAAGGCCGGUGGGAGAAGGGCCCGGGCCCGC | 20.5 nM | 23.1 nM |
| CGCUCACAUGAGGAUCACCCAUGUCCUAGGAGGUCAGGAUAUAGCUCGGAUGCGUUGAGGCUAGAAGGGACAGGUG [JR_SS001_Sub606] | 78.6 nM | 59.5 nM |
| CGGAAGGAGAGAGAGGAUAUCCAAAGGAAAACAUGAGGAUCACCCAUGUAGAAGGUAGGAAAUUGGGAGAAGGCUCAACAGAGAG [salish99-ss2-130] | 19.1 nM | 33.4 nM |
| CGGAGACAUGAGGAUCACCCAUGUGAGAAGAGGCGAGGAUAUCGAAAGAAAGAAGAGAAACGAGAAGGCGCGAGAC [salish99-SS1-077] | 17.7 nM | 26.7 nM |
| CGGAGACAUGAGGAUCACCCAUGUGAGAAGAGGCGAGGAUAUCGAAAGAAAGAAGAGAAACGAGAAGGCGCGAGGG [salish99-SS1-075] | 18.3 nM | 27.7 nM |
| CGUCUACAUGAGGAUCACCCAUGUCAAGAGUGGUCAGGAUAUGGUAUUAGAUGAGUAUGGCCAGAAGGGACAUAAG [JR_SS001_Sub715] | 167 nM | 386 nM |
| CGUGAACAUGAGGAUCACCCAUGUAGCGGGAGACAAGGAUAUGGGAGGCGAAAUCGCGGAUCAGAAGGUGUAAGCG [Zace] | 16.4 nM | 16.5 nM |
| CUAAUUGCAUAUUAGGAUAUACACUGGGUGACAUGAGGAUCACCCAUGUAAAAGCACACUCGGUAGUAGAAGGAGUGUGCAAGUC [Iserso] | 36 nM | 19.1 nM |
| CUACAACAUGAGGAUCACCCAUGUCGUAGAAAUCAAGGAUAUGGGUCGGUAACAUGCGUACCAGAAGGUGAGGAAA [Rebicequ] | 29.3 nM | 30.4 nM |
| GAAAAACAUGAGGAUCACCCAUGUAAGAUAAACACAGGAUAUGCGAAAAUAAACAAAGAAGCAGAAGGGUGAAGAA [Mat - Same State 1 - Tesla mod - 72] | 23 nM | 80.3 nM |
| GAAAAACAUGAGGAUCACCCAUGUAGAAAAAUGGGAGGAUAUACAAAGACGAAAGUCAAAGUAGAAGGCCUGAAAG [same state 77% mat/eli mod] | 24.8 nM | 74.4 nM |
| GAAAAACAUGAGGAUCACCCAUGUAGAAAUAUGGGAGGAUAUACAAAGACGAAAGUCAAAGUAGAAGGCCUAAAAG [Mat - Mod of Eli] | 23.9 nM | 69.3 nM |
| GAAAAACAUGAGGAUCACCCAUGUAGAAAUAUGGGAGGAUAUACAAAGACGAAAGUCAAAGUAGAAGGCCUAAAAG [Mat - Same State 1 - Rerun of Eli mod - D1] | 23.9 nM | 69.3 nM |
| GAAAAACAUGAGGAUCACCCAUGUAGAAAUAUGGGAGGAUAUACAAAGACGAAAGUCAAAGUAGAAGGCCUAAGAG [Garnet 22] | 31.8 nM | 82.6 nM |
| GAAAAACAUGAGGAUCACCCAUGUAGAAAUAUGGGAGGAUAUACGAAGUCGAAAGUCAAAGUAGAAGGCCUAAAAG [Garnet 28] | 31.3 nM | 108 nM |
| GAAAAACAUGAGGAUCACCCAUGUGAAAAUAUGGAAGGAUAUACAAAGACGAAAGUCAAAGUAGAAGGUCUAAAAG [Mat - Same State 1 - Eli mod - D14] | 15 nM | 22.5 nM |
| GAAAAACAUGAGGAUCACCCAUGUGAAAAUAUGGGAGGAUAUACAAGGACGAAAGUCAAGGUAGAAGGCCUAAAAG [Mat - Same State 1 - Eli mod - 27] | 39.4 nM | 78.8 nM |
| GAAAAACAUGAGGAUCACCCAUGUGAGAAUAUGGGAGGAUAUACGAGGACGAGAGUCAAGGUAGAAGGCCUAAAAG [Garnet 75] | 40.5 nM | 549 nM |
| GAAAAACAUGAGGAUCACCCAUGUGAGAAUAUGGGAGGAUAUUCAAAGACGAGAGUCAAAGAAGAAGGCCUAAAAG [Mat - Same State 1 - Eli mod - 38] | 29.3 nM | 161 nM |
